Source: publication doi:10.1101/2022.09.29.510028 (bioRxiv, 2022)
Where “and” joins values, the source holds several entries; their conditions need not be identical. Identical values can stand only once. Like-named read-outs stand apart in the source and are kept apart here.

B1: NPM1_(120) (N-terminal domain, residues 1-120) (domain or fragment)
chain: MEDSMDMDMSPLRPQNYLFGCELKADKDYHFKVDNDENEHQLSLRTVSLGAGAKDELHIVEAEAMNYEGSPIKVTLATLKMSVQPTVSLGGFEITPPVVLRLKCGSGPVHISGQHLVAVE
B2: NPM1_(ΔIDR) (NTD and CTD linked without the IDR) (other)
chain: MEDSMDMDMSPLRPQNYLFGCELKADKDYHFKVDNDENEHQLSLRTVSLGAGAKDELHIVEAEAMNYEGSPIKVTLATLKMSVQPTVSLGGFEITPPVVLRLKCGSGPVHISGQHLVAVEPSSVEDIKAKMQASIEKGGSLPKVEAKFINYVKNCFRMTDQEAIQDLWQWRKSL
B3: rpL5_(21-37) (residues 21-37 of ribosomal protein L5) (peptide)
peptide: RRRREGKTDYYARKRLV
B4: NPM1_(188) (NTD and the acidic regions of the IDR, residues 1-188) (domain or fragment)
chain: MEDSMDMDMSPLRPQNYLFGCELKADKDYHFKVDNDENEHQLSLRTVSLGAGAKDELHIVEAEAMNYEGSPIKVTLATLKMSVQPTVSLGGFEITPPVVLRLKCGSGPVHISGQHLVAVEEDAESEDEEEEDVKLLSISGKRSAPGGGSKVPQKKVKLAADEDDDDDDEEDDDEDDDDDDFDDEEAEE

How the values were obtained:
Assay in all cases: native MS
native MS [1] = biological target: the molecule itself
native MS [2] = biological target: the molecule itself; remark: listed apart in the source
[3] = biological target: Nucleophosmin 1, full-length (FL NPM1) (human)
[4] = biological target: B1

Binder: B1
- stoichiometry N (native MS [1]): ≥ 25 subunits

Binder: B2
- stoichiometry N (native MS [2]): 10 and 5

Binder: B3
- binding result [3]: binds
- binding result [4]: binds

Binder: B4
- stoichiometry N (native MS [2]): 5 and 10
